The values that follow come from US20230365659A1 (EPSILON MOLECULAR ENGINEERING, published 2023).

First the molecules themselves.
B1: Bacillus subtilis-derived VHH-COVE3 (VHH)
VHH: AEVQLVESGGGFVQAGGSLRLSCRVSAPTFMTYTMAWFRQAPGNEREFVAALSKNFVTTSYADSVKGRFTISRDNAKNTVYLQMNSLKPEDTAVYYCNVAWSDYEYLEVWGQGTLVTVSSGGGSHHHHHH
B2: Bacillus subtilis-derived VHH-COVE2 (VHH)
VHH: AEVQLVESGGGLVQAGDSLRLSCAATRRTSSTYAMGWFRQAPGKGLEWVAAISWDGGRTYYAESVKGRFTISRDNAKNTVYLQMNSLKPEDTAVYYCYSFGGSDFLMDYWGQGTQVTVSSGGGSHHHHHH
B3: Bacillus subtilis-derived VHH-COVE9 (VHH)
VHH: EVQLVESGGGLVQPGGSLRLSCAASGTIFSTNAMSWYRQAPGKQRELVAAITSGGNTNYADSVKGRFTISRDNAKNTVYLQMNSLKPEDTAVYYCNAPGVVTGSYDVRNYWGQGTQVTVSS
B4: Bacillus subtilis-derived VHH-COVE6 (VHH)
VHH: EVQLVESGGGLVQAGGSLRLSCTASGRTWNIASMTWFRQAPGGKERTFVATIKWSDLATYYTDSVKGRFTISRGNSKNTVYLQMNSLKPEDTGVYFCYAITTGSPLLGGGMDFWGKGTLVTVSS
B5: Bacillus subtilis-derived VHH-COVE4 (VHH)
VHH: AEVQLVESGGDVVQPGGSLRLSCAASGFTFTTYAMTWVRQAPGEGLEAVSTISGADGSTYYADSVKGRFTISRDNANNTVYLQMNSLKPEDTAVYYCAATPWYSASHTYWGQGTQVTVSSGGGSHHHHHH
B6: Bacillus subtilis-derived VHH-COVE5 (VHH)
VHH: EVQLVESGGGLVQAGGSLRLSCTASDQIFDNYNMAWFRQSPGKEREFVAALSWGDSNTGYADSVKGRFTISRDNAKNTVYLQMNSLKPEDTAVYYCYAVTWLRGDYWGQGTQVTVSS
B7: Bacillus subtilis-derived VHH-COVE1 (VHH)
VHH: AEVQLVESGGGLVQPGGSLRLSCAASGFAFSSYPMYWVRQAPGKGLEWISFIDGEGTSTSYADSVKGRFTISRDNAKNTVYLQMNSLKPEDTAVYYCNALLRRYNYGFTFDNYWGQGTQVTVSSGGGSHHHHHH
B8: Bacillus subtilis-derived VHH-COVE8 (VHH)
VHH: EVQLVESGGGLVQPGGSLTLSCAASGQTFSSYNMAWFRQSPGKEREFVATISWGGGSTGYADSVKGRFTISRDHAKNTVYLQMKDLKPEDTGAYYCYLVGLFGIQASDYWGQGTQVTVSS
B9: Bacillus subtilis-derived VHH-COVE7 (VHH)
VHH: EVQLVESGGGLVQAGDSLRLSCTASGRTFSSCAMGWFRQAPGKEREFVAAISRGGGSTSYADSVKGRFTISKDRARNTAYLEMNSLKPEDTAIYYCYAVFPSGGDYWGQGTQVTVSS
B10: VHH-COVE9 (on beads in Example 26, production host not stated) (VHH)
VHH: B3 VHH

The target of one test is SARS-CoV-2 (2019-nCoV) spike S1-Fc recombinant protein (Sino Biological, Inc.) (SARS-CoV-2, UniProt P0DTC2 16-685).
Experiment: not given
Regarding B1, the Kd (commonly the constant that tells how readily two partners part at equilibrium) came to 0.924 nM; the koff (in general, a measure of how fast the partners let go of each other) worked out at 9.75e-05 s⁻¹; the kon (in general, the rate constant with which the complex forms) was 106000 M⁻¹ s⁻¹.
With B2, the Kd amounted to 1.2 nM, the koff came out at 8.47e-05 s⁻¹ and the kon turned out to be 70700 M⁻¹ s⁻¹.

For the next test, the target named is T1, SARS-CoV-2 full-length Spike Recombinant Antigen B.1.617 Mutation (Bio-Serv) (SARS-CoV-2, UniProt P0DTC2 14-1273).
T1 construct: Bought
Nature of the test: ELISA, VHH on nickel plate, spike in solution. For orientation: ELISA stands for enzyme-linked immunosorbent assay.
Regarding B3, the binding result is recorded as “no binding (tested: 500 ng/mL)”.
Still for that read-out and setting: in the case of B4 it was “no binding (tested: 500 ng/mL)”; in that of B5, “no binding (tested: 500 ng/mL)”; in that of B2, “no binding (tested: 500 ng/mL)”.
For the molecule B6, the binding result is “no binding (tested: 500 ng/mL)”.
B7: the binding result is recorded as “no binding (tested: 500 ng/mL)”.
For B8, the binding result is “no binding (tested: 500 ng/mL)”.
As to B9, the binding result is reported as “no binding (tested: 500 ng/mL)”.

The target in a further test is SARS-CoV-2 full-length Spike Recombinant Antigen B.1.1.7 Mutation (Bio-Serv) (SARS-CoV-2, UniProt P0DTC2 14-1273). Nature of the test: ELISA, VHH on nickel plate, spike in solution (0-500 ng/mL).
For B3, the “absorbance (450 nm)” value came to 0.97.
B4: the binding result was “binds”.
On to B1, for which the “absorbance (450 nm)” value turned out to be 0.97.
For B5, the binding result is recorded as “binds”.
On to B2, for which the “absorbance (450 nm)” value was 0.97.
Turning to B6, the “absorbance (450 nm)” value is 0.97.
As to B7, the binding result was “binds”.
Consider B8, for which the “absorbance (450 nm)” value stood at 0.97.
On to B9, for which the “absorbance (450 nm)” value came out at 0.97.

The target of a further test is SARS-CoV-2 full-length Spike Recombinant Antigen B.1.351 Mutation (Bio-Serv) (SARS-CoV-2, UniProt P0DTC2 14-1273). The description is as above.
Consider B3, for which the “absorbance (450 nm)” value was 0.97.
The same measure, in the same setting: as for B1, the figure is 0.97; as for B2, 0.97; as for B6, 0.97.
Same read-out and setting: as for B8, the figure is 0.97.
B9: the “absorbance (450 nm)” value turned out to be 0.97.

The next test addresses SARS-CoV-2 full-length Spike Recombinant Antigen P.1 Mutation (Bio-Serv) (SARS-CoV-2, UniProt P0DTC2 14-1273). Described as above.
As for B3, the “absorbance (450 nm)” value amounted to 0.97.
Same read-out and setting: in the case of B1 it was 0.97.
For B2, the “absorbance (450 nm)” value stood at 0.97.
As to B6, the “absorbance (450 nm)” value turned out to be 0.97.
In the case of B8, the “absorbance (450 nm)” value came to 0.97.
Turning to B9, the “absorbance (450 nm)” value worked out at 0.97.

For the next test, the target named is T2, SARS-CoV-2 (2019-nCoV) spike RBD (L452Q, F490S) protein (His Tag) (Sino Biological, Inc.) (SARS-CoV-2, UniProt P0DTC2 319-541).
T2 construct: domain: RBD
Nature of the test: pull-down with VHH-immobilized beads, SDS-PAGE of the eluate.
For B10, the binding result is reported as “no binding (tested: 12.5 µg/mL)”.

A further test has as its target T3, SARS-CoV-2 spike RBD variant strain (SPD-C52Hn, Acro Biosystems, N501Y) (SARS-CoV-2, UniProt P0DTC2 319-537).
T3 construct: domain: RBD
Nature of the test: BLI (Octet), biotinylated RBD on SA sensor, VHH as analyte, 1:1 fit.
In turn, B3 came in with a Kd of 6.9 nM, a dissociation rate constant (koff) of 0.00267 s⁻¹ and a kon of 386000 M⁻¹ s⁻¹.
Consider B2, for which the Kd turned out to be 4.01 nM, the koff worked out at 0.000438 s⁻¹ and the kon came to 109000 M⁻¹ s⁻¹.
For B6, in that order: 11.6 nM, 0.00106 s⁻¹ and 91100 M⁻¹ s⁻¹.
On the same counts, the results for B8 are 28.8 nM, 0.00159 s⁻¹ and 55300 M⁻¹ s⁻¹.
B9 displayed a Kd of 24 nM, an off-rate (koff) of 0.00186 s⁻¹ and a kon of 73300 M⁻¹ s⁻¹.

The target of another test is T4, SARS-CoV2 spike RBD variant strain (SRD-C52H3, Acro Biosystems, E484K) (SARS-CoV-2, UniProt P0DTC2 319-537).
T4 construct: domain: RBD
Described as above.
B3 returned a Kd of 9.9 nM, a koff of 0.00307 s⁻¹ and a kon of 310000 M⁻¹ s⁻¹.
As to B2, the equilibrium dissociation constant (Kd) came to 34.4 nM, the koff was 0.00365 s⁻¹ and the kon came to 106000 M⁻¹ s⁻¹.
The molecule B6 returned a Kd of 626 nM, a koff of 0.0246 s⁻¹ and a kon of 39200 M⁻¹ s⁻¹.
In turn, B8 yielded an equilibrium dissociation constant (Kd) of 211 nM, a koff of 0.0147 s⁻¹ and a kon of 69700 M⁻¹ s⁻¹.
As to B9, the Kd was 80.2 nM, the koff turned out to be 0.00707 s⁻¹ and the kon turned out to be 88100 M⁻¹ s⁻¹.

The target in another test is T5, SARS-CoV2 spike RBD variant (SRD-C52H2, Acro Biosystems, N440K) (SARS-CoV-2, UniProt P0DTC2 319-537).
T5 construct: domain: RBD
Described as above.
B3: the Kd was 12.5 nM, the koff is 0.00258 s⁻¹ and the association rate constant (kon) was found to be 206000 M⁻¹ s⁻¹.
For B1, binding was characterised by a dissociation constant (Kd) of 15.4 nM, the off-rate constant (koff) turned out to be 0.000448 s⁻¹ and the association rate constant (kon) is 29200 M⁻¹ s⁻¹.
As to B2, the Kd was found to be 2.96 nM, the koff worked out at 0.000491 s⁻¹ and the kon worked out at 166000 M⁻¹ s⁻¹.
For B6, in that order: 42.4 nM, 0.00178 s⁻¹ and 42100 M⁻¹ s⁻¹.
B8: the Kd was < 0.001 nM, the koff is < 1e-07 s⁻¹ and the kon worked out at 74500 M⁻¹ s⁻¹.
Molecule B9 gave an equilibrium dissociation constant (Kd) of 24.2 nM, a koff of 0.00113 s⁻¹ and an association rate constant (kon) of 46600 M⁻¹ s⁻¹.

In the next test the target is T6, SARS-CoV2 spike RBD variant strain (SPD-C52Hp, Acro Biosystems, K417N, E484K, N501Y) (SARS-CoV-2, UniProt P0DTC2 319-537).
T6 construct: domain: RBD
The description is as above.
In the case of B3, binding was put at a Kd of 10.9 nM, the koff came out at 0.00159 s⁻¹ and the kon came out at 146000 M⁻¹ s⁻¹.
Consider B1, for which binding was put at a Kd of 265 nM, the koff was 0.0106 s⁻¹ and the on-rate constant (kon) came out at 40000 M⁻¹ s⁻¹.
For B2, in that order: 90.7 nM, 0.00529 s⁻¹ and 58400 M⁻¹ s⁻¹.
Molecule B6 gave an equilibrium dissociation constant (Kd) of 306 nM, a koff of 0.0625 s⁻¹ and a kon of 204000 M⁻¹ s⁻¹.
Consider B8, for which the Kd came out at 239 nM, the koff turned out to be 0.0191 s⁻¹ and the kon was determined as 79900 M⁻¹ s⁻¹.
On to B9, for which binding was characterised by a dissociation constant (Kd) of 93.7 nM, the koff was 0.00398 s⁻¹ and the association rate constant (kon) was 42400 M⁻¹ s⁻¹.
